Reference: US20090004183A1 (published 2009)
Blank lines part the entries; values can stand above or below the binder they belong to.

Molecular target: T1, C3b deposited on zymosan or Sepharose 4B (human, UniProt P01024 23-667; P01024 749-1663, limits assumed, covalently deposited on zymosan A or Sepharose 4B by opsonization in normal human serum)
T1 construct: The whole C3 entry is named; The deposit may include iC3b; also called C3b-opsonized zymosan; C3b-zymosan
Assay: flow cytometry on zymosan opsonized in 50% NHS
Protocol: After 30 minutes, the reactions were quenched with EDTA, washed and samples without the mAbs were probed with the respective A1488 mAbs.

T1 sequence (P01024 23-667 limits assumed, chain 1 of 2): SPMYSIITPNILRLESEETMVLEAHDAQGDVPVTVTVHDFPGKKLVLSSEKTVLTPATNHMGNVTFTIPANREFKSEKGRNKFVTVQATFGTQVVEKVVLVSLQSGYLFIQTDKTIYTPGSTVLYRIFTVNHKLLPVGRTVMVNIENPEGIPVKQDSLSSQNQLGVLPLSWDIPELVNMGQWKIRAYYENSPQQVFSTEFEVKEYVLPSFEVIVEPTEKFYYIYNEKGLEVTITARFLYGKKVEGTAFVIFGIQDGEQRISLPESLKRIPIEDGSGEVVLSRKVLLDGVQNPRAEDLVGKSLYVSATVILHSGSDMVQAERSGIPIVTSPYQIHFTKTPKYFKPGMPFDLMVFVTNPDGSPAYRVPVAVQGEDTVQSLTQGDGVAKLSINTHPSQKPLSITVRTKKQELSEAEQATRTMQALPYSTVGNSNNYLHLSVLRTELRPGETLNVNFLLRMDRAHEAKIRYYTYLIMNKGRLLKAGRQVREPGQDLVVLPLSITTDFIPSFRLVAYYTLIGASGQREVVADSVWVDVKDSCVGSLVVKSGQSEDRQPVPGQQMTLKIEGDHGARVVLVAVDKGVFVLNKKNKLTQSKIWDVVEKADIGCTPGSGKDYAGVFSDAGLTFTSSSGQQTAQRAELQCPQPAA
T1 sequence (P01024 749-1663 limits assumed, chain 2 of 2): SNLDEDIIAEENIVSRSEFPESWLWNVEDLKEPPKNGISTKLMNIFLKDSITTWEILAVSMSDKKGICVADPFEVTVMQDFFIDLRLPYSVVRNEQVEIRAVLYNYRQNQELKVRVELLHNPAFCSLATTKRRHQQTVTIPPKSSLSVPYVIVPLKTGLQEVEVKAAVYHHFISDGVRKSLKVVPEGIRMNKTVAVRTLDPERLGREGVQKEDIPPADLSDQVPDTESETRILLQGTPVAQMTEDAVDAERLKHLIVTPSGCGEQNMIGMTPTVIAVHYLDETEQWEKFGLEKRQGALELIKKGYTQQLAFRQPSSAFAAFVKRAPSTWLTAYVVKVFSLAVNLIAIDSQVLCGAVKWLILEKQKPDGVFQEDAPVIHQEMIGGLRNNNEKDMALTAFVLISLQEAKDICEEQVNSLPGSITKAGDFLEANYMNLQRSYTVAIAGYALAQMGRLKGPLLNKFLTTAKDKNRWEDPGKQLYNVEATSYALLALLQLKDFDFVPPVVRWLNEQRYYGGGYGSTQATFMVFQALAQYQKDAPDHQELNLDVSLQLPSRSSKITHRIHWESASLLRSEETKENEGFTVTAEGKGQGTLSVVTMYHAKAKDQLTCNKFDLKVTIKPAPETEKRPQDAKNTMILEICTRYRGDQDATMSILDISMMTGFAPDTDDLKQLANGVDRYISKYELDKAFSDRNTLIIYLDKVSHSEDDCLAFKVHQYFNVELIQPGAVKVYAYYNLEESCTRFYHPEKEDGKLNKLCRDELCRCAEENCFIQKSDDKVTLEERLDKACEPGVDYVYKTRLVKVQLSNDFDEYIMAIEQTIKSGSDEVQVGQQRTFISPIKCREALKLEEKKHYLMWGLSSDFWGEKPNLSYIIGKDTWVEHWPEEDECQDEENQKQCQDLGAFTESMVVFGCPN

fold increase in binding (probe added after opsonization versus present from the start): 200 fold
B1: mAb H17 (antibody, V domains shown)
VH: EVQLQESGPSLVKPSQTLSLTCTVSGDSITSDYWNWIRQAPGKGLESMGYITYSGTTYYNPSLKSRVTISRDTSKNQYYMELSSLRSEDTATYYCARGVDYEPSYYFDYWGQGTLVTVSS
VL: DIQMTQSPSSLSASVGDRVTITCSASQGISNYLNWYQQKPGKAPKLLIYYTSSLHSGVPSRFSGSGSGTDYSLTISSLQPEDIATYYCQQYSNLPWTFGQGTKVEIK
notes: It is a chimeric, de-immunized form of 3E7 with human gamma1 and kappa constant regions, expressed in NS0 cells; also called H117; deimmunized chimeric 3E7

fold increase in binding (probe added after opsonization versus present from the start): 200 fold
B2: mAb 3E7 (antibody, mouse IgG1, V domains shown)
VH: EVQLQESGPSLVKPSQTLSLTCSVTGDSITSDYWNWIRKFPGNKLESMGYITYSGTTYYNPSLKSRISITRDTSKNQYYLQLNSVTSEDTATYYCARGVDYEPSYYFDYWGQGTTLTVSS
VL: DIQMTQTTSSLSASLGDRVTISCSASQGISNYLNWYQQKPDGTVKLLIYYTSSLHSGVPSRFSGSGSGTDYSLTISNLEPEDIATYYCQQYSNLPWTFGGGTKLEIK
notes: also called mouse IgG1 mAb 3E7; A1488 mAb 3E7
